Experimental data: paper PMC7749160, “Mycobacterial HelD is a nucleic acids-clearing factor for RNA polymerase” (Nature Communications, 2020)

Columns and labels:
[1] = target: T1, β subunit of Mycobacterium smegmatis RNA polymerase (as in the recombinant core m2) (Mycobacterium smegmatis, UniProt P60281 1-1169); test: cryo-EM structure; HelD and RNAP core mixed at a molar ratio of 3:1, 4 °C, 15 min; complex isolated on Superose 6 Increase in 20 mM Tris-HCl pH 7.8, 150 mM NaCl, 10 mM MgCl2, 1 mM DTT; three states (I, II, III) from one sample; conditions: both partners purified
T1 construct: RNA polymerase subunit β, Mycobacterium smegmatis; In the cryo-EM sample it stood on one chain with β′ (β–β′ fusion of m2), within the core enzyme; also called RNAP β; source: E. coli BL21(DE3), purified as part of the RNAP core (β–β′ fusion)
T1 sequence: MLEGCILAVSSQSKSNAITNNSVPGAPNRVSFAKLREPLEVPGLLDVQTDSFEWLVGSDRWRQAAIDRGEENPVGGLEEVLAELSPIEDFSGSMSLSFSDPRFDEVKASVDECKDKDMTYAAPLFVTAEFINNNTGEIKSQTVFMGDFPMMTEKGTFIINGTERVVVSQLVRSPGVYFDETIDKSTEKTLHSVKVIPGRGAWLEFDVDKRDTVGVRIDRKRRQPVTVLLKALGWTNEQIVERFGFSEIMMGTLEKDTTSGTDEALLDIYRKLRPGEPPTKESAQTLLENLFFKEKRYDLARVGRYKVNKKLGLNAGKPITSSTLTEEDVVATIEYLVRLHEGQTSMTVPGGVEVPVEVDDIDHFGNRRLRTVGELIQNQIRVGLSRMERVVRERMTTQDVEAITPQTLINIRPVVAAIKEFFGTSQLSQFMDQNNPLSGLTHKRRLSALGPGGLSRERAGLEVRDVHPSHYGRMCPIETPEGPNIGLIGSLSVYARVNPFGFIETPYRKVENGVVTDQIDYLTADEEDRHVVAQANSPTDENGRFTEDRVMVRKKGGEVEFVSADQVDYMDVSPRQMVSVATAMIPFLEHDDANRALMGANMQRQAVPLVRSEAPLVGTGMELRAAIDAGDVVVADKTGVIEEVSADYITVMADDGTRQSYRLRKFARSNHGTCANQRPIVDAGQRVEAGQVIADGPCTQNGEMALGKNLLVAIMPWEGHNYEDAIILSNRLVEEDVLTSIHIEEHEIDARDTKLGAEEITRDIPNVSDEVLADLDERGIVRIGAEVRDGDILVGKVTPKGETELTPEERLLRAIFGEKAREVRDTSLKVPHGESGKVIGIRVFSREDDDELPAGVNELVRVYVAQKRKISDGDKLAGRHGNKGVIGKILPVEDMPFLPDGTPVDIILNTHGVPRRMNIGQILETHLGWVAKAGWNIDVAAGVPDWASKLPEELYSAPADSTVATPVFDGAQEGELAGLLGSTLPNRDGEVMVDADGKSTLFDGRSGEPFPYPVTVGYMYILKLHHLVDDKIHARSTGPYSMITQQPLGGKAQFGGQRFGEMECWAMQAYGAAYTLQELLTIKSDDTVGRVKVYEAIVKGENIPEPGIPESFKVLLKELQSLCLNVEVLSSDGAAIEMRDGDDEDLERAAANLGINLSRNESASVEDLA

[2] = target: T2, β′ subunit of Mycobacterium smegmatis RNA polymerase (as in the recombinant core m2) (Mycobacterium smegmatis, UniProt A0QS66 1-1317); test: as above; conditions: both partners purified
T2 construct: RNA polymerase subunit β′, Mycobacterium smegmatis; In the cryo-EM sample it stood on one chain with β (β–β′ fusion of m2), within the core enzyme; also called RNAP β′; source: E. coli BL21(DE3), purified as part of the RNAP core (β–β′ fusion)

B1: Mycobacterium smegmatis HelD (MSMEG_2174), recombinant (natural protein, UniProt A0QUE0 2-736, looked up)
chain: SGRDYEDELQSERDYVAGLYARLDAERAQSQRRYAAALREHGGTAVERDAEVRALAKDIARLNVADNGLCFGRLDTLDDARLYIGRLGIFDRDNDFEPLLLDWRAPMARPFYVATAANPENMRRRRQFHTLGRKVVDFTDEILGRPTGAEHDATNDAALLAAVNAPRGEGMRDIVATIQAEQDQVIRLDHTGVLVIEGGPGTGKTVVALHRVAYLLYTYRKQMERHGVLVVGPTPAFLDHIGRVLPSLGESDAVFMTPGDFVPGLHVTAEDTPEAAEVKGSLKILDVLKAAVADRQELPSEPIPIDLSDVTMRIDAETAKWARDEARKTGLPHNEARAEFVDVVTYVVTERAVARIGRGWLTRDDKHAWEKMRADVVGELEDHEQFNAALDALWPILTPEDVLAQLYTSHERLRAAGAPECLWRADGEAWTVSDVPLLDELVDLLGRNKAADEAAERERREEEAYAAGVLDLMVDREDLMDDEDHLLAQDLIDAEELADRFKEQDNRELSERAAADREWTYGHVVVDEAQELSEMDWRLLMRRCPRRSFTIVGDLAQRRSPAGARSWGAMLDSYVPGRWVYKSLSVNYRTPAEIMAVAAAVLAEFAPDATPPDSVRACGVAPWARQVTDDDIASAIAEFVSEEAGREGTSVVIGPPDVPGTVPPSETKGLEFDAVLVVEPERILADGPRGAAELYVALTRATQRLGVLYRDALPQALAGLAEGDAAATVEQRTSA
notes: HelD, gene MSMEG_2174 of Mycobacterium smegmatis strain ATCC 700084/mc2 155; the tag is followed by the second amino acid of MSMEG_2174; Codon-optimised synthetic gene in pET302/NT-His; also called Msm HelD; source: E. coli Lemo 21 (DE3), purified (HisTrap, TEV protease, Superdex 75)
- binding result [1]: binds
- binding result [2]: binds
